Data as given in PMC4347018.

Key:
[1] = molecular target: Cytolysin A (ClyA) wild type, N-terminally His6-tagged (E. coli) (UniProt P77335); assay: FRET or BRET; single-molecule intramolecular FRET of ~100 pM labelled ClyA freely diffusing, with 5 nM to 5 uM unlabelled ClyAwt; assembly triggered with 0.1% (w/v) DDM by manual mixing; 22 °C; 20 mM potassium phosphate pH 7.3, 150 mM NaCl, 0.001% Tween-20, 10 mM DTT; global fit of the histogram time series with the non-sequential assembly model (irreversible steps)
[2] = molecular target: Cytolysin A (ClyA) wild type, N-terminally His6-tagged (E. coli) (UniProt P77335); assay: FRET or BRET + cross-linking; rate coefficient of pore closure in the non-sequential assembly model fitted to the single-molecule FRET data, set so that the predicted formation of complete pores matches the cross-linking data (500 nM ClyAwt, 0.1% DDM, 22 °C)

Substance	k5 (association rate coefficient of all oligomerization steps that lead to incomplete pores) [1]	k6 (association rate coefficient of pore closure, two oligomers to the complete pore) [2]
ClyA Q56C/E252C labelled with Alexa Fluor 488 at Cys56 and Alexa Fluor 594 at Cys252 (from UniProt P77335 2-303) (natural protein)	102000 M⁻¹ s⁻¹	
Cytolysin A (ClyA) wild type, N-terminally His6-tagged (from UniProt P77335 2-303) (natural protein)		> 1e+07 M⁻¹ s⁻¹
